B1: 997 (protein)
chain: MKSFIKELIEQKEGNYILPFFWQHGESEGKLREYMEAIHSCGIRAVCVEARPHPDYLGPGWWHDLDIIIDEAKKRDMKLWILDDAHFPTGYAAGKIAESEDKYCKQYISRKFIDVSGPTPEVEVNLAAMMMPIMLPSGLNLEMFGMSSEKKRYFTDDRILSIRAYQMDKDSSLIGEGIDLTTNIVNGKLIWDVPKGTWRINVLFITRNGEGRCDYINMVDKDSCRIQIDAVYEPHYEHYKEEFGKTIAGFFSDEPCLGNSIGYNFDESIGKKKTPLPWSSQLEKMLEEKLGKEYLPYYPALWTDMADEKVNARVRYAYMDCVTRLVEENFSRQIGQWCEERGVEYIGHIVEDNNQHSRLGSSQGHFFRSMMGQHMSGIDNIGDQVLPGGENHKREALLGADKDGEFYHYELGKLGSSLAHIDPKKQGRAMCEIFGAYGWRLGIRTMKYLMDHFLVRGINVYVPHAFSPKDFPDSDCPPHFYAGGEDPQFNYFKKLMHYTNRMCHLLNGGTHIAPAAVLYHGEAEWTGGCMFNQKVARELLESQIDFDILPSDVFADMSAYNATFDGFLQVNGESYDCFIVPYAEFITKEVAVFAGTASKKGFPVFFVQGLPESICNIDKKEEEKLLLDGMSECIVVPLEALSKTLKDNKLFEISSDNQFDGLRYYHYRKEQTELYMFSNESIGKEYNGWITVKSKGEVSLYDAMDNRIIPAEYRNTEDGTSIHIRLTPYQSVVALFEDLKEVEDQGNFEAKPGYRLDAAWRISSAEVSKYPEFQPVEVTTELKSMGRVLPDFSGYLRYESEFVYDRMPTGRELLNITDVYEGAEVWLNGHCLGMKICPPYQFPLGEALRAGENHIRIEVATTLDRKVKSLPQDMRSLMFYSKITEPTGIVGSVEIWN
modifications: Lachnoclostridium phytofermentans
B2: 1038 (protein, listed as Formosa agariphila)
chain: MILHKSVFKSYIYVLTYFVFFSVMSCENSSVLQEAKHLTISEGFKNPLGFYDAKPTFSWELPVVEGVISQSAYQIVVASSPDLLPNNPDLWDSNKQSSSQSVWINYEGKPLVSRQKVFWQVKYWNQDDKASNWSPVQNFELGLLNNSDWKAKWIGLPTKEEGVLGSQDNIIHRPQYLRKVFELSNDVANARLYITAKGVFDVAINGEDVSDDVMPPGYTPYKKRIETITYDVTDLIESGQNTIGVEVAAGWHSGRLGWMKSYWSDTESPKILCQLEVTMKDGSKASIISDDTWKATTQGPIRISEIYDGETYDAHLEMPHWTTNSFDDKNWKAVQAFPVTSTIKLEPKRHTTVKSKIVLESKEIILKADAAIFDLQQNMVGVPLLKVPMKMGDTLKIRFAEMLSPDGTFYTDNYRSAQSTDYYIAAKEGTIEWMPKFTFHGFRYVELSGFDASKTPSKNWVKGVVQYSNFNENGSFTSSHEKLNQLQSNIVWGLRGNFFDIPTDCPQRDERMGWTGDAQVFGPTSMFNADVYKFWASWMQSVRESQYDNGGIPFVVPDVLHNGKVSSGWGDVCTIIPWKIYYRTGDVGILEENYDMMKKWVAHHQATSKDFISHMNSFADWLQPYPENGNNKGDTSHSLIGTAFFAHSAKLTAKTAEVLGKKEEQATYEALYKSVAKAFENAFFKNGKVKDVTATQTSYLLALAFDLLSEENKENAKQQLLEKISEADNHLRTGFLGTPLLSEVLDETGEIDLMYKLLFNETYPSWFYSINQGATTIWERWNSYSKAEGFNPMKMNSLNHYAYGAIGEWMYERITGIAPLQAGYKIISIAPIPKAPLTSASATLNTPYGEVASSWEIKNETLFLEVVVPPNTTAEIEIPTDNSESLKVDNENFTNGKNLKLIKNEKRKIKILAQPGTYEFQAKYSL
B3: 1047 (protein, listed as Brachybacterium faecium)
chain: MSSHTAQHVLDALTHPDPAARPMMRWWWFGPDMDRAEIDRELRAMAAAGLGGAEIALVYPLRPGAPDYLGDEALGHVRHAAERARELGLRLDVTLGSGWSYGGPHIGPEQAARRLRWERRDLGPQPLSWPLTPSWPGDELVSVHLGEGLPPSGWTRLDPVGERLEIPAGRGPRTVLLAWSEVTGQQVKRSAAGAEGPVVDHLSATAVRHHLDVVGGALLSAVPAHLLGSVFSDSLEVYDAGWTAALPEQFRQRRGYDLLPVLHLLEVDAPGAEQVREDYGLTLSELVEEGFVGTCRAWAEEHGVRFRLQGYGQPPITLSAQRGAHLIEGEGAGWTALTQSRWASSAAHLDRREVVSSEVWTWVRSPAFRAAPLDLLGEAHEHLLLGITHFVGHGWPYTAPDAPGLGWTFYAAGALDDRNAWWPAMPELTAHLTRLCAALRLGAPGAEVALYLPYADVRAARGRGHDLWAACRAHIGEQLPAAIRRAGYDLDLLDDDALAALDPAAYPVVVLPRVSRLPAETRRWLDRVRAAGGSVLAVDSPAYPAGQQLSLPEEDGDDARLRDHATLAMVGARGGSDAEGEEGADGEGADGEAAGGKNPLAAALRGAHTPPLLLSGDGGEVGTVHRRLADGDLHLLAHTGPRRREVEVTPRDPRRALALHDPAEPGLRPLPSTGARLVLHPYQAVLLLATDQPLPAPDGAAPATDAAHGPAQTGTAEPEPIALDGPWTASRPGEAPRAVTLPHLLTGQDAADLRPLLLETTVTLDEDTARGPLVLDLGPGRAVPHTGEGSGYRALLEPPVREIAVLEVDGEELGVLWRPPYRIALTGRLRAGTSRLRLRIHGTTAAAAALPENAEAAAGQVAAAHETYGERFQPQELERMLDGVATGLASVPVLRRAGG
B4: 1045 (protein, listed as Acidobacterium capsulatum)
chain: MLVGGLATAATAQTNLQQLEKTFQNPPDNAKPMLRWWWFGPSVTKPEILREMQQIKAGGFGGFVIHYVYPLALDDPQTGFRNLPFLSPAMLSDVSYANRQAHALGLRAGTALASGWPYGGPMTAVTEAAAKIVQKESTVAPGAHSVALPSIGNGQKLLAVFAQDGSAGSQQKMLPLPAPVTLRMAIPTGTHIVDWYLMSRTGQQVKRAAVDANGFVLDHFSHHAVADHLKNVGDKLVAAFGSEPPDSVFSDSLEVFGADWTPDFLEEFRKKNGYSLLPYLPDLFMKHPDAQALAVRHDWGVTLTALIDENYLTQVNAWARAHHTHLRAQVYGPPAVSLSSNNLVDLPEGEGPQWRQFAYTRWATSAGHLYGRPIISSETFTWLHSPAFRATPLDVKAEADRFFLQGVNQIYCHGWPYSPPSAGEPGWRFYAAAVFDAHNPWWIVMPEVTQYLQRVSWIMRQGAPANRVAIFLPEDDAWAAFTPGQVALTGLLPRWITPQLTQAIENSGYDFDYIDAAAIQARGIHYSLLILPNVDRISPAALTAIQQYEKSGGKVIALGRIPAHAPGFLHYEQISAEVNRESHAFFGHPGARVRVVQAVSGLGDALHQMLTPAMTLSAAKPAVGFVRRKLDDADIYFLANTSNVSIHTVAHLRSRYTSGTWLDPMSGKAYAAQSRNGGWPLHLAPYGSTILVLHAKNVRLPVAAGHDSFNPSSTKAIADLSSDWNVSFPALHLQEPMATLASWTKNEKTLYYSGVAVYRRTLEVAQNDLDHAPLLLSFGQGTPVSPSAFHRQMGTRAWLNPPVHVAAVVYVNGRLAGTVWHPPYVLAVGGLLKPGANQIEVRVANTAINEMAGKSLPDYRLLWARYGRRFEPQDMKHLQPLPSGLLGKVELLEGESR
B5: 1032 (protein)
chain: MRYIFFLGLLAASLTAFAQTAPTNLRTDLLLHTDKVWSNGFLTNYTLDGADSAKFAGQLALIRSSRPSFSWVLSTAGGTSRQTAYRLILSTSRQKNQADAGDVWDSGKVMSSQSVGILLPASQKLDTNRIYFWKVKVWNERNLESDFSQPKAFRTAPRLTAYETPFYPLVKTEEAPRSQRTLAGQRIVYDFGKDAFGQAFLTVSSASESDTLIVHLGEAVTADGHVNEKPSGTLRYRQIRVPLQKGTHRYAIQFKPDKRNTGPKAILMPDYIGEVLPFRYVELAFNPATRIEQIVRQVVTYPFDDSATTFSSSDSTLNQIWDLCKHTIKATTFTGYYVDGDRERIPYEADALLNQLSHYATDAEYNMAKRSLNYLVFHATWPTEWSLQNVLIAWYDYLYSGDSRTVEALYPELKAKLLLPLARPDGLISTRTGLQTPEFKKSIHYDTFDGRPTIQDIVDWPQQGVLGLGKKEAGETDGFVFTDYNAVVNAFHYQGLVFMAQLASRLGKTDDAAFYANRAGLVRKAFQATFIHPKTGLVRDGEGTDHASLHANMMALAFGLVPEKLQSQVLAHIRSRGMACSVYGSQFLLDALYNANESAYGLALMTSTDERSWYNMLRTGSTMTTEAWDTRYKPNQDWNHAWGSAPANIIVRKLMGVEALTLAYETVQIKPQPDTLRQASLQVATLRGPISVAFDNTPDRFVLRTTLPANTNGVVYLPRKKTKSQVLQNGKSVKAAVEGNFWKITSVGAGTHEWEVR
modifications: Spirosoma linguale
B6: 1057 (protein, listed as Parabacteroides goldsteinii)
chain: MKVDITKIFTILFVIAFAGCLLQSCNSSINGLEQGFFNPPDSVRPGVYWYFMDGNLSKEAMTKDLESMKEAGIGHVVYLEVNVGVPRGSVDFLSDEWQEMFAHAVAECERLGIDITLGVGPGWTGSGGPWVEGAQSMMHLVSSSVNVSGKGKKTIALPKPSPKPHFFAEDNFTPESKKRWEEYYEDVAVLAFPAGASTFGTDYEAGSAYLRITGIEEKALYYRKPYSSVTQVKPYLTFGKDSFTVQTVDKDCIIDLTDHLEIDGTLTWEVPEGDWTIMRFGARNNGAVTRPAPHPGVGLETNKFDTTALNAHLDKFVTKLFNRVGFKKAQPQGGLQMLHMDSWEMGAQNWTTHFREEFTKRRGYDPQPFYPVYAGFIVQSREESERFLWDLRVTSQELIKEYHAGHIKSYGKRYGLGLSIEPYDMNPTADLELASVADMPMCEFWSVGYGYNTSFSAMEGTSVAHLLGQPVVPAESFTAYLDGWRQHPGSMKNQTDWALASGINRLMFHTFQHQPLNDRLRPGMTMGPYGVHWDRNQTWWPMADAYHRYISRCQLLLQQGRTVADILYLTPEGAPHVFRAPISALEGDLLDTDNLFNFRNETPLPDRKGYNFDACPPSLFYDAQVKDGKVVFPSGVSYRLLVLPCFETMTPELLEKIRDLVNGGATVVGLPPQKSPSLVNYPVCDEKVRVLVQELWGGYEIPETVEIRSIGKGKVIWSKELLEQQDNLYPTYEYTADILAKMDVHEDFESTGEIRYTHRTMKGYEIYFVSNRKDSPVTVNCKFRMTGHPELWNPMTGEIRPLAEYTVTGVHTTIPLLFDANEGYFIVFRDNTFQREIQTKKNFPDSRRVASLTAPWSVSFDPAWGGPEQVTFEKLTDWTQHPDSGIRYYSGTAIYRQTFDRPADNSKQQFLDLGKVKNLARVRLNGQDLGVVWTAPWRVEITKALKLKDNQLEIEVVNLWPNRLIGDEQLPDDGIRNGEWPEWLKDGGPRTSGRYTFTTYKHFTKESPLLESGLLGPVTIWGIDN

Tests used:
Assay type in all cases: biochemical, Quillaja saponaria
[1] = Experiment 6-1: screening of rhamnosidases for derhamnosylation of saponins in treated bark extract (2%), QS-17 2310 to QS-18 2164 (PAR %); details: TBE 2%, pH 7.5, 30 degC, 18 h; TIC peak area ratio percent, LCMS/MS; negative controls 3.061, 2.429
[2] = Experiment 6-1: specificity of rhamnosidases towards other rhamnose residues (C3 saccharide rhamnose, C28 saccharide rhamnose); details: TBE 2%, pH 7.5, 30 degC, 18 h; LCMS/MS; negative controls 0.18, 0.17
[3] = Experiment 6-1: screening of rhamnosidases for derhamnosylation of saponins in treated bark extract (2%), desglucosyl-QS-17 2134 to QS-21 1988 (PAR %); details: TBE 2%, pH 7.5, 30 degC, 18 h; TIC peak area ratio percent, LCMS/MS; negative controls 2.719, 2.158
[4] = Experiment 6-1: screening of rhamnosidases for derhamnosylation of saponins in treated bark extract (2%), QS-17 2296 to QS-18 2150 (PAR %); details: TBE 2%, pH 7.5, 30 degC, 18 h; TIC peak area ratio percent of rhamnosylated starting saponin to derhamnosylated product, LCMS/MS; negative controls 4.876, 5.225

Row | Molecule | Peak57 (PAR %) [1] [%] | ratio PP/QS-21 [2] | Peak75 (PAR %) [3] [%] | QS-17 (PAR %) [4] [%]
1 | B1 | 2.906 | 0.17 | 2.115 | 4.754
2 | B2 | 2.913 | 0.18 | 2.512 | 4.725
3 | B3 | 3.332 | 0.17 | 2.456 | 4.669
4 | B4 | 2.865 | 0.17 | 2.442 | 4.741
5 | B5 | 3.044 | 0.17 | 2.411 | 4.730
6 | B6 | 3.213 | 0.15 | 2.498 | 4.670

Reference: US20240026407A1, “MODIFICATION OF SAPONINS” (GLAXOSMITHKLINE BIOLOGICALS SA, priority 2020, published 2024)
